Assay results taken from patent US9834755B2, “Compositions and methods for enhanced generation of hematopoietic stem/progenitor cells” (FRED HUTCHINSON CANCER RESEARCH CENTER, priority 2011, dated 2017).
Marks after values point to notes of the source that are not given here.

Columns and labels:
CD34+ cells = conditions: cited from earlier work
CD34^+ CB HSPC [1] = test: SRC frequency by limiting dilution analysis in NSG mice; format: in vivo, human; conditions: Delta1^Ext-IgG 2.5 μg/ml alone, 5 μg/ml with SR1; for No. mice engrafted, Engraftment with ≧0.5% CD34^+ cells / No. mice engrafted, Engraftment with ≧1% CD33^+ cells / No. mice engrafted, Engraftment with ≧1% CD34^+ cells / No. mice engrafted, Engraftment with ≧5% CD33^+ cells: bone marrow aspirate at 2 weeks
From the text: Human cord blood (CB) samples for research were obtained from normal deliveries under Swedish Medical Center Institutional Review Board (Seattle) approval and after consent was obtained. CB samples were red blood cell depleted (Delaney et al., 2010, Nat Med 16(2):232-236), CD34 enriched using CD34^+ immunomagnetic particles (Miltenyi Biotec), purified with Automacs (Miltenyi Biotec), and cryopreserved. […] Cultures were initiated with 7×10^4 to 1.3×10^5 CD34^+ cells for 25-cm^2 flasks and with 3×10^5 CD34^+ cells for 75-cm^2 flasks. Immunofluorescence analysis was performed as described (Ohishi et al., 2002, J Clin Invest. 110(8):1165-1174) with labeled antibodies: FITC (human CD14, CD33, and Lineage); PE (human CD7, CD14, CD15, CD19, CD90, and CD123); PERCP (human CD34); APC (human CD10, CD45, IL3Ra); PECy7 (mouse CD45.1, human CD34); Alexa Fluor 700 (CD38); APC-eFluor 780 (CD45RA). Transplants were performed in sublethally irradiated (275 rad) NOD-SCID IL-2Rγ-null mice (NSG). In vivo engraftment was assessed by immunofluorescence analysis of human cell subsets (human CD45^+ murine CD45.1). On average, the total number of cells infused was 4.25×10^6/mouse for Delta1^ext-IgG alone, 1.88×10^7/mouse for SR1 alone, and 4.76×10^6/mouse for the combination. Statistical analyses were performed as indicated. For limiting dilution analysis, mice were injected with the cultured progeny of the number of CD34^+ cells indicated and bone marrow aspirates performed at 2 weeks. Two engraftment cut-offs were chosen based on percent engraftment observed in non-limiting transplantation studies. The frequency of SRCs was determined by the method of maximum likelihood with L-CALC software (StemCell Technologies) from the proportions of engrafted recipients (A, B).

[2] = patients, vs concurrent cohort receiving double cord blood transplantation of non-manipulated units; cited from earlier work
CD34^+ CB HSPC [3] = test: In vivo repopulation: cultured progeny of CD34+ CB HSPC transplanted into sublethally irradiated NSG mice; design: species or system human; conditions: secondary transplantation; differences not statistically significant
Procedure: Sublethally irradiated NOD-SCID IL-2Rγ-null mice (obtained from an established breeding colony at the Fred Hutchinson Cancer Research Center and approved for use by the Fred Hutchinson Cancer Research Center Institutional Animal Care and Use Committee) were infused with the progeny 10,000 starting CD34^+ cells per mouse via tail vein for cord blood experiments and the progeny of 20,000 for PBSC experiments. Repopulating ability of infused cells was assessed at 2-3 weeks post-transplant by bone marrow aspiration and at 13 weeks by bone marrow harvest.
Cells were cultured as described above and transplanted into sublethally irradiated immunodeficient NSG mice. Total human engraftment was defined as percent of human CD45^+ murine CD45.1^− cells based on bone marrow aspirate at 2 weeks post-transplant. Total myeloid engraftment was defined as percent human CD45^+CD33^+ murine CD45.1 cells on bone marrow aspirate at the same time point.
The progeny of 1×10^4 CD34^+ cells were then transplanted into 10 sublethally irradiated NSG mice per condition and engraftment was assessed by bone marrow aspirate at 2 weeks post-transplant. Total human engraftment was defined as percent of human CD45^+ murine CD45.1^− cells based on bone marrow aspirate at 2 weeks post-transplant. Total myeloid engraftment was defined as percent human CD45^+CD33^+ murine CD45.1^− cells on bone marrow aspirate at the same time point.
Transplants into NSG mice were performed as described above, with the cultured progeny of 1×10^4 CD34^+ cells. Cells were cultured in the presence of SR1, Delta1^Ext-IgG 2.5 μg/ml, or SR1 and Delta1^Ext-IgG (2.5 or 5 μg/ml) for 16 days.
Cells were cultured and transplanted as described above with the progeny of 1×10^4 CD34^+ cells transplanted per mouse. Total human, progenitor cell, myeloid, and lymphoid assessments were performed on bone marrow samples. Bone marrow aspirates were performed in the mice at 2 and 8 weeks post-transplant, and mice were sacrificed for bone marrow harvest at 13 weeks.

CD34^+ CB HSPC [4] = test: Ex vivo culture/expansion of CD34+ cord blood HSPC, cell counts and flow cytometric phenotype; format: cell-based, human
Procedure: Human cord blood samples for research were obtained from normal deliveries under Swedish Medical Center Institutional Review Board (Seattle) approval and after consent was obtained. The units were incubated in ammonium chloride red blood cell lysis buffer (consisting of 16.6 g NH4Cl, 2 g NaHCO3 and 74.4 mg EDTA per 2L of water) and resuspended in PBS with 2% human AB serum. Cells were incubated with CD34 Microbeads from Miltenyi Biotec and purified with an Automacs (Miltenyi Biotec). Cells were then frozen and thawed at time of use with PBS+1% FBS. Pools of 2 or more cord blood units were used for all experiments. Peripheral blood stem cells (PBSC) were obtained from a single donor and cryopreserved after CD34^+ cell selection.
Cells were cultured for 16 days in non-tissue-cultured-treated tissue culture flasks (25, 75, and 175-cm^2). Flasks were precoated with Delta1^ext-IgG (ligand preparation described in Delaney C. et al., 2005, Blood 106(8):2693-2699; and Varnum-Finney et al., 2000, J. Cell Science 113: 4313-4318), or human control IgG at 2.5 μg/ml and retronectin 5 μg/ml. Delta1^ext-IgG titrations were performed with concentrations of 0.5, 1.25 (for PBSC), 2.5, or 5 μg/ml. Flasks were incubated at 4° C. overnight or 37° C. for 2 hours and then washed with PBS and blocked with PBS 2% BSA for 30 minutes at 37° C. Cells were cultured in StemSpan serum-free expansion medium in the presence of 4 growth factors (IL6 (50 ng/ml), thrombopoietin (50 ng/ml), Flt-3 ligand (50 ng/ml), stem cell factor (50 ng/ml)) or 5 growth factors (4 growth factors plus IL3 (10 ng/ml)). SR-1 was made fresh and added to cells with all feedings at a concentration of 750 nM. Cultures in 25-cm^2 flasks were initiated with between 7×10^4 and 1.3×10^5 CD34^+ cells. Cultures in 75-cm^2 flasks were initiated with 3×10^5 CD34^+ cells. Cells were expanded to larger flasks when they exceeded cell density >1×10^6 cells/ml. Expansions typically occurred on day 7 and 10 of culture. Fresh media with cytokines was added very 3-4 days including the day prior to transplantation.
Immunofluorescence analysis was performed as described (see Ohishi et al., 2002, J Clin Invest. 110(8): 1165-1174), with FITC-labeled antibodies against human CD3, CD14, CD15, CD33, CD34, CD90, phycoerythryin (PE)-labeled antibodies against human CD19, CD56, CD90, CD133, Glycophorin A, CXCR4, PERCP-labeled antibodies against human CD14, CD34, APC-labeled antibodies against human CD45, CD90 and PECy7 labeled antibody against mouse CD45.1.
To determine whether Delta1^Ext-IgG and SR1 in combination were successfully able to expand CD34^+ CB HSPC ex vivo, CD34^+ cell generation, an HSPC enriched population routinely used in clinical application, was assessed at multiple time points in culture as compared to IgG control. CD34^+ CB progenitors were isolated by bead selection and Automacs and then cultured for 21 days in StemSpan serum-free expansion media supplemented with cytokines (TPO, SCF, IL-6, and Flt3-ligand at 50 ng/ml). […] Cells were cultured in the presence of SR1 (750 nM) and Delta1^Ext-IgG (0.5 or 2.5 μg/ml) or an IgG control. The engineered Notch ligand, Delta1^ext-IgG, contains the extracellular domain of Delta1 fused to the Fc portion of human IgG1 and is immobilized on the plastic surface of tissue culture flasks at varying densities. Immobilization of the Fc portion of human IgG1 served as a control construct. […] CD34^+ selected cells were seeded per flask from a pool of 2 CB units. […]

[5] = limiting dilution analysis, maximum likelihood

CC(C)n1cnc2c(NCCc3ccc(O)cc3)nc(-c3cccc4cnccc34)nc21 [Example 145]
EC50 (CD34+ cells): 5400 nM

Fc1cncc(-c2nc(NCCc3c[nH]c4ccccc34)c3ncn(C4CCOC4)c3n2)c1 (stereo not shown) [Example 158]
EC50 (CD34+ cells): 12 nM

B1: Delta1^Ext-IgG: engineered Notch ligand: extracellular domain of Delta1 fused to the Fc portion of human IgG1, immobilized on tissue culture flasks (protein)
chain: QVWSSGVFELKLQEFVNKKGLLGNRNCCRGGAGPPPCACRTFFRVCLKHYQASVSPEPPCTYGSAVTPVLGVDSFSLPDGGGADSAFSNPIRFPFGFTWPGTFSLIIEALHTDSPDDLATENPERLISRLATQRHLTVGEEWSQDLHSSGRTDLKYSYRFVCDEHYYGEGCSVFCRPRDDAFGHFTCGERGEKVCNPGWKGPYCTEPICLPGCDEQHGFCDKPGECKCRVGWQGRYCDECIRYPGCLHGTCQQPWQCNCQEGWGGLFCNQDLNYCTHHKPCKNGATCTNTGQGSYTCSCRPGYTGATCELGIDECDPSPCKNGGSCTDLENSYSCTCPPGFYGKICELSAMTCADGPCFNGGRCSDSPDGGYSCRCPVGYSGFNCEKKIDYCSSSPCSNGAKCVDLGDAYLCRCQAGFSGRHCDDNVDDCASSPCANGGTCRDGVNDFSCTCPPGYTGRNCSAPVSRCEHAPCHNGATCHERGHRYVCECARGYGGPNCQFLLPELPPGPAVVDLTEKLEGQGGPFPW
modifications: left off: a dimerising Fc or GST
notes: engineered Notch ligand: extracellular domain of Delta1 fused to the Fc portion of human IgG1, immobilized on tissue culture flasks
No. mice engrafted, Engraftment with ≧0.5% CD34^+ cells (CD34^+ CB HSPC [1]; 1000 CD34^+ cells/mouse): 0/9 | No. mice engrafted, Engraftment with ≧1% CD33^+ cells (CD34^+ CB HSPC [1]; 1000 CD34^+ cells/mouse): 2/9 | No. mice engrafted, Engraftment with ≧1% CD34^+ cells (CD34^+ CB HSPC [1]; 1000 CD34^+ cells/mouse): 0/9 | No. mice engrafted, Engraftment with ≧5% CD33^+ cells (CD34^+ CB HSPC [1]; 1000 CD34^+ cells/mouse): 0/9 | No. mice engrafted, Engraftment with ≧0.5% CD34^+ cells (CD34^+ CB HSPC [1]; 4000 CD34^+ cells/mouse): 1/9 | No. mice engrafted, Engraftment with ≧1% CD33^+ cells (CD34^+ CB HSPC [1]; 4000 CD34^+ cells/mouse): 9/9 | No. mice engrafted, Engraftment with ≧1% CD34^+ cells (CD34^+ CB HSPC [1]; 4000 CD34^+ cells/mouse): 0/9 | No. mice engrafted, Engraftment with ≧5% CD33^+ cells (CD34^+ CB HSPC [1]; 4000 CD34^+ cells/mouse): 3/9 | No. mice engrafted, Engraftment with ≧0.5% CD34^+ cells (CD34^+ CB HSPC [1]; 20000 CD34^+ cells/mouse): 7/7 | No. mice engrafted, Engraftment with ≧1% CD33^+ cells (CD34^+ CB HSPC [1]; 20000 CD34^+ cells/mouse): 7/7 | No. mice engrafted, Engraftment with ≧1% CD34^+ cells (CD34^+ CB HSPC [1]; 20000 CD34^+ cells/mouse): 6/7 | No. mice engrafted, Engraftment with ≧5% CD33^+ cells (CD34^+ CB HSPC [1]; 20000 CD34^+ cells/mouse): 6/7 | CD33^+ SRC frequency per starting cell, Engraftment with ≧1% CD33^+ cells (CD34^+ CB HSPC [1]; [5]): 1/1719* | CD33^+ SRC frequency per starting cell, Engraftment with ≧5% CD33^+ cells (CD34^+ CB HSPC [1]; [5]): 1/11314^# | CD34^+ SRC frequency per starting cell, Engraftment with ≧0.5% CD34^+ cells (CD34^+ CB HSPC [1]; [5]): 1/11739* | CD34^+ SRC frequency per starting cell, Engraftment with ≧1% CD34^+ cells (CD34^+ CB HSPC [1]; [5]): 1/19121^# | reduction in time to neutrophil engraftment [2]: 50% | human engraftment upon secondary transplantation, average CD45^+ (CD34^+ CB HSPC [3]): 0.22% | CD34 expansion compared to IgG control (CD34^+ CB HSPC [4]; 7, 14, 18 and 21 days in culture, alone groups: data not shown): enhanced CD34 expansion | TNC generation with increasing densities of Delta1^Ext-IgG (CD34^+ CB HSPC [4]; day 16, SR1 with Delta1^Ext-IgG 0, 0.5, 2.5 or 5 μg/ml): decreased TNC generation in a stepwise manner
